For this assay, the target named is T1, soluble HGF-R, chimeric fusion protein (HGF-R/IgG) comprising the HGF-binding portion of the extracellular … (UniProt P08581 25-932, limits assumed).
T1 construct: also called c-Met; not shown: a portion of IgG
Put plainly: SPR (BIAcore 2000), N immobilized on the sensor chip, soluble HGF-R/IgG injected at three different doses.

T1 sequence (P08581 25-932 limits assumed, change not shown): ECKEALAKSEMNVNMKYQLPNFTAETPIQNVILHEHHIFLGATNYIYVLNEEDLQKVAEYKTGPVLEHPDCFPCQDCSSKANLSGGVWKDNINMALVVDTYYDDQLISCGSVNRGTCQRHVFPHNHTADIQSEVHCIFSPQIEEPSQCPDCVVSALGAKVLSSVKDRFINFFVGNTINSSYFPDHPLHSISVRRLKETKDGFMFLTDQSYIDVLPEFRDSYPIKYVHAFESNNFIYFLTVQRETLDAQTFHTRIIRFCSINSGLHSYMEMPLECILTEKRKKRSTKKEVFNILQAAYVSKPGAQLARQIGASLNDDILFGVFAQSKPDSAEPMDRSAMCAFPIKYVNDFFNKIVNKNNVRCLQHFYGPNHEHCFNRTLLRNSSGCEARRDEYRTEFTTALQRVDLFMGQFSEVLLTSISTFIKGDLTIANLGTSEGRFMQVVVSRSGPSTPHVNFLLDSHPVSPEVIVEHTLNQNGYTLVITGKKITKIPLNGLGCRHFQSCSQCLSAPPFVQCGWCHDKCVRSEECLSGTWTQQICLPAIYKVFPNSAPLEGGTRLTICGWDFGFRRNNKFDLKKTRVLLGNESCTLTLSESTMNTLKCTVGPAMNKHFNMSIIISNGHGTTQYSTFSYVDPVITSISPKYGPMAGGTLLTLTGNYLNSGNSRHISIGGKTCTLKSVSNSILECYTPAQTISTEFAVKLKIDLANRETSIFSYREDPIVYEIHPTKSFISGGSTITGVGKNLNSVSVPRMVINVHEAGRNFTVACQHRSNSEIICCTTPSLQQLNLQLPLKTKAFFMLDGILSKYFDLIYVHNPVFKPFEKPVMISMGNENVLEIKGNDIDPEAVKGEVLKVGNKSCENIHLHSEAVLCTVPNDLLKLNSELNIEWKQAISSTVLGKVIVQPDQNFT

B1: peptide N derived from the HGF α-chain (hairpin-loop domain of HGF, N-terminal Gln instead of PyrGlu) (peptide)
chain: QRKRRNTIHEFKKSAKTTLIKIDPALKIKTKKVNTADQCANRCTRNKGLPFTCKAFVFDKARKQCLWFPFNSMSSGVKKEFGHEFDLYENKDYIRN
notes: Expressed in E. coli and purified; In Assay 6 it was immobilized on the BIAcore sensor chip; also called Ex 1
As for B1, the binding result is on record as “no binding”.

The record behind these values is patent US20050107296A1 (INSTITUT DES VAISSEAUX ET DU SANG, published 2005).
